The values below come from patent US20150064134A1.

Assay in all cases: cell-based or functional assay
For experiment [1], the target named is CDK2/cyclinA(h) (human) (UniProt P24941).
For experiment [2], the target named is CSK(h) (human) (UniProt P41240).
In experiment [3] the target is EphA4(h) (human) (UniProt P54764).
Experiment [4] addresses FGFR2(h) (human) (UniProt P21802).
Experiment [5] deals with Fer(h) (human) (UniProt P16591).
Experiment [6] addresses T1, Flt1(h) (human) (UniProt P17948).
T1 sequence (looked up): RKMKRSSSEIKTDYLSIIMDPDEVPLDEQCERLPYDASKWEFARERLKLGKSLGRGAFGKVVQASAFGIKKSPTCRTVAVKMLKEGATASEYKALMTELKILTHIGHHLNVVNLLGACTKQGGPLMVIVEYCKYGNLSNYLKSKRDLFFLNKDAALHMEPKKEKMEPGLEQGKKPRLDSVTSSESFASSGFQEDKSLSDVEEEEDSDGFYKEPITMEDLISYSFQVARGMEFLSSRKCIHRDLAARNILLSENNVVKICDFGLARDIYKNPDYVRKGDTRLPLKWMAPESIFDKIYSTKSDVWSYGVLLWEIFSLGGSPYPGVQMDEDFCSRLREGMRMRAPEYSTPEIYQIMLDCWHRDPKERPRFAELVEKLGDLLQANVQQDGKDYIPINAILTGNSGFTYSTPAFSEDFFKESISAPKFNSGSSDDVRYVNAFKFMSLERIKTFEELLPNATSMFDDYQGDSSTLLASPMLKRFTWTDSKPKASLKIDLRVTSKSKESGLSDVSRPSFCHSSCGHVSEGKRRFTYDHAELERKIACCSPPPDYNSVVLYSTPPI

Experiment [7] addresses T2, NLK(h) (human) (UniProt Q9UBE8).
T2 sequence (looked up): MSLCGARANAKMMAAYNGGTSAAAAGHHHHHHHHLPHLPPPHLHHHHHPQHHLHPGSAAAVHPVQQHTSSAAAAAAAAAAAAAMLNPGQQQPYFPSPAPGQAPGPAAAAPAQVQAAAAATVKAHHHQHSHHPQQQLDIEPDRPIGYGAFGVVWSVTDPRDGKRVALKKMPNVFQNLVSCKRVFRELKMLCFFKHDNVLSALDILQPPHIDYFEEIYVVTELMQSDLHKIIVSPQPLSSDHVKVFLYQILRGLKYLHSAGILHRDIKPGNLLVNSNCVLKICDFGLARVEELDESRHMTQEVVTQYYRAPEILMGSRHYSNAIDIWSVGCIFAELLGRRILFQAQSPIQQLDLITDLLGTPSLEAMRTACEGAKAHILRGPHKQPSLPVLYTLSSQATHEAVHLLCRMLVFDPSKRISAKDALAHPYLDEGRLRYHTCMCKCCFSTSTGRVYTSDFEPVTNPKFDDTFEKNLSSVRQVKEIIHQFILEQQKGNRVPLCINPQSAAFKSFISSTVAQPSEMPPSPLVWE

Experiment [8] deals with PKCδ(h) (human) (UniProt Q05655).
Experiment [9] addresses PKCι(h) (human) (UniProt P41743).
For experiment [10], the target named is PRK2(h) (human) (UniProt Q16513).
The target of experiment [11] is T3, Rse(h) (human) (UniProt Q06418).
T3 sequence (looked up): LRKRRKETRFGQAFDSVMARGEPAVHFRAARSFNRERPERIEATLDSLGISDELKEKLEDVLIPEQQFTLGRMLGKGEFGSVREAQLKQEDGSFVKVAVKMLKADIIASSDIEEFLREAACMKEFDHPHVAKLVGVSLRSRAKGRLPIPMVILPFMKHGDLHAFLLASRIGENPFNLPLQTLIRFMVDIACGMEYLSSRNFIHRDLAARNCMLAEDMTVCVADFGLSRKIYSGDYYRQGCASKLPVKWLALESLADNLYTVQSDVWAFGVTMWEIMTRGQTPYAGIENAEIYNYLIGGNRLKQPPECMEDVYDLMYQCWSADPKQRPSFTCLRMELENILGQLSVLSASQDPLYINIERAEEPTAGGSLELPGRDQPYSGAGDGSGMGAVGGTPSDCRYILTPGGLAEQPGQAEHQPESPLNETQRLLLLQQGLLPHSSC

The target in experiment [12] is SAPK2a(T106M)(h) (human) (UniProt Q16539).
For experiment [13], the target named is SIK(h) (human) (UniProt P57059).
Experiment [14] concerns the target T4, TAO2(h) (human) (UniProt Q9UL54).
T4 sequence (looked up): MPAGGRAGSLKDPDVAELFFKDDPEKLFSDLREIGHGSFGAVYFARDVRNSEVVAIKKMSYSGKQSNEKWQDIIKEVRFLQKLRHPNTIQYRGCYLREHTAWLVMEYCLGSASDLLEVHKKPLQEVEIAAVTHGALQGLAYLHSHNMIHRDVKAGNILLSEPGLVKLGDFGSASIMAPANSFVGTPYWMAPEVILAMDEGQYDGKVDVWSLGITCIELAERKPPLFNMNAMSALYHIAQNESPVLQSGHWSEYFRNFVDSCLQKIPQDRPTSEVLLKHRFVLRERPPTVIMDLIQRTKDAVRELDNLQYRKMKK

Experiment [15] addresses T5, ULK2(h) (human) (UniProt Q8IYT8).
T5 sequence (looked up): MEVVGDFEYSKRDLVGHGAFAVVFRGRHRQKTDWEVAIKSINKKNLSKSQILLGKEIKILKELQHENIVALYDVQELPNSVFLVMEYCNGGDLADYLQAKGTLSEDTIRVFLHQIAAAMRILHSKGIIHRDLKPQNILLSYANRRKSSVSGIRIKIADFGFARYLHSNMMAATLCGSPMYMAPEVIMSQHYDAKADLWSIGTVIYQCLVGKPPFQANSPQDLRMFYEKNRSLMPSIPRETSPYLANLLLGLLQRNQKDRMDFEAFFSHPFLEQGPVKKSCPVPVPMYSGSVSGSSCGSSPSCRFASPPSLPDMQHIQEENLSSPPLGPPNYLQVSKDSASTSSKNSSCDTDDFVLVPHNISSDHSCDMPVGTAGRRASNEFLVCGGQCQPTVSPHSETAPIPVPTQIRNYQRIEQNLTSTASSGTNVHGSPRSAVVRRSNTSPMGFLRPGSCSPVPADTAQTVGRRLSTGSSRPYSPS

SAPK2a(T106M)(h) (human), sequence (Q16539 whole entry T106M): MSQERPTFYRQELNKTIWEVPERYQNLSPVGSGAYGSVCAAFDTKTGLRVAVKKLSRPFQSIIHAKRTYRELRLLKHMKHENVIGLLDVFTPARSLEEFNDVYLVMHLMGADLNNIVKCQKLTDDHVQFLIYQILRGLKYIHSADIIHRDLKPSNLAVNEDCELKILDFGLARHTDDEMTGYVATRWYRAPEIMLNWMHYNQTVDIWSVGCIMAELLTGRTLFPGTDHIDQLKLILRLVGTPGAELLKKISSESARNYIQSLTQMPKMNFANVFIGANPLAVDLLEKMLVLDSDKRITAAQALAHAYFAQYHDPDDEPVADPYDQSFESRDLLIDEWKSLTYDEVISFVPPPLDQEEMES
FGFR2(h) (human), sequence (P21802 456-770 limits assumed): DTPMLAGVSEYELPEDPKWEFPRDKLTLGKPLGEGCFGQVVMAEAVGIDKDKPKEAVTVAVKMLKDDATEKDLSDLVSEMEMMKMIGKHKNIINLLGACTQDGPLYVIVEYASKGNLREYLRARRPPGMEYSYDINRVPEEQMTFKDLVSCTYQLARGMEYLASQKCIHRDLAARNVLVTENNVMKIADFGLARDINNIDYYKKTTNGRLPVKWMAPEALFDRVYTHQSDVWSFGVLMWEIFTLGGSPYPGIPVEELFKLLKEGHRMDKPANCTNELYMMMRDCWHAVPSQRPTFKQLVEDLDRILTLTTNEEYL
EphA4(h) (human), sequence (P54764 570-986 limits assumed): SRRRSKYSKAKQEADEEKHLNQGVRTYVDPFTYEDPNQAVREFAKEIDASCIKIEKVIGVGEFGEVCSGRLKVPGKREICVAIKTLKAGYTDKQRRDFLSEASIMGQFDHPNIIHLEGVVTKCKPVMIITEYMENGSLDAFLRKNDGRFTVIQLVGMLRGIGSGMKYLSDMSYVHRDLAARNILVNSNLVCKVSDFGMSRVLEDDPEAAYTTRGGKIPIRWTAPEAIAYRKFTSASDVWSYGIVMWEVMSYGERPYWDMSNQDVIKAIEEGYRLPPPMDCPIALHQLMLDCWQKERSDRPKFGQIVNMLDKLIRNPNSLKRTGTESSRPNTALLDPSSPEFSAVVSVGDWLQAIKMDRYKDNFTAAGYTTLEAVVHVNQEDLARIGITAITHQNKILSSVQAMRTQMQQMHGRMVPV

Turning to MMI-0300 (peptide), the % activity at 100 µM amounted to 86% in [1]; 49% in [2]; 88% in experiment [3]; 14% in [4]; 130% in experiment [5]; 69% in [6]. The % activity at 100 µM in experiment [7] turned out to be 87%; in [8], 101%; in experiment [9], 68%; in [10], 33%; in experiment [11], 88%; in experiment [12], 97%. The % activity at 100 µM in [13] stood at 66%; in [14], 70%; in experiment [15], 122%.
Take MMI-0500 (peptide): the % activity at 100 µM amounted to 87% in experiment [1]; 2% in experiment [2]; 48% in [3]; 12% in [4]; 196% in experiment [5]; 27% in experiment [6]. Further, the % activity at 100 µM in [7] amounted to 19%; in experiment [8], 61%; in [9], 7%; in experiment [10] it was 7%; in experiment [11], 63%; in experiment [12], 32%. The % activity at 100 µM is 40% in [13], 15% in experiment [14] and 124% in [15].
Consider MMI-0400 (peptide), for which the % activity at 100 µM is 92% in experiment [1]; 16% in [2]; 65% in experiment [3]; 18% in experiment [4]; 108% in experiment [5]; 48% in experiment [6]. Also, the % activity at 100 µM in experiment [7] turned out to be 90%; in experiment [8], 90%; in experiment [9], 46%; in [10] it was 27%; in experiment [11], 89%; in experiment [12], 99%. For the same substance, the results for the % activity at 100 µM in experiment [13], in [14] and in experiment [15] were 68%, 74% and 131%, respectively.
